We go through three molecules from publication PMC8927147, “Global profiling of regulatory elements in the histone benzoylation pathway” (Nature Communications, 2022).

Where a chain is given by its changes, count along the chain named. In names and notes the source's numbering stands.

The target in one experiment is T1, H3K14bz peptide.
T1 chain: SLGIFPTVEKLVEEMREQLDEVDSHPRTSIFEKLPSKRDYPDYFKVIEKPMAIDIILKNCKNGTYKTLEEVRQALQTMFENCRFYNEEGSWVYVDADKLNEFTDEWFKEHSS
The experiment is described as follows: ITC. The note with it: chain shown with the change.

The target in a further experiment is T2, H3K27bz peptide.
T2 chain: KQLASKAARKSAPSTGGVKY
Put plainly: ITC. The note with it: chain shown with the change.

B1: Sth1BD, P32597 A1329C (peptide)
chain: TARKSTGGKAPRKQLASY
As to B1, in the experiment with H3K14bz peptide, the Kd was 187 µM.

B2: Sas5_(YEATS), Q99314 K64P (protein)
chain: DHSIEVTFRVKTQQVIIPEQNIRGNELPLRRWQMELLMLDATGKEVEPTILSKCIYHLHSSFPQPKRRLNSLPFFIKETGWGEFNLKIECFFIGNAGKFSIEHDLTFEDDAYAVDYTVDVPHEFSHLNSELSKYFDLP
On to B2, for which the Kd with H3K27bz peptide was found to be 31.1 µM.

B3: Sas5_(YEATS), Q99314 L30H (protein)
chain: B2 chain with L29H, P63K
For the molecule B3, the Kd in the experiment with H3K27bz peptide is 369 µM.

The Kd is the equilibrium constant for the complex coming apart. Read a low Kd as a tighter complex.
